Assay results: CN117062835A (ONCORIS PONS, dated 2023)

B1: 变体1(V1) (antibody, V domains shown)
VH: EVQLVESGGGVVQPGRSLRLSCAASGFTFSSYDMHWVRQAPGKGLEWVAVISEDGSNKYNADSVKGRFTISRDNSKNTLYLQMNSLRAEDTAVYYCARENVRPYYDFWSGYSSEYYYYGLDVWGQGTTVTVS
VL: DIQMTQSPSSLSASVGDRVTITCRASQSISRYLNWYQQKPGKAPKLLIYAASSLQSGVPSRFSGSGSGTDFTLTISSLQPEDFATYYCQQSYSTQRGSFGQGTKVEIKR
B2: 变体4(V4) (antibody, V domains shown)
VH: EVQLVESGGGVVQPGRSLRLSCAASGFTFSSYVMHWVRQAPGKGLEWVAVISEDGSNKYNADSVKGRFTISRDNSKNTLYLQMNSLRAEDTAVYYCARENVRPYYDFWSGYSSEYYYYGLDVWGQGTTVTVSS
VL: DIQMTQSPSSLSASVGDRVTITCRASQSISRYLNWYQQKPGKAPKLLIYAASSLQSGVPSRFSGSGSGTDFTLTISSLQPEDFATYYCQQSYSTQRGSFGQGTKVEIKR
notes: also called 克隆4

What was measured:
加His标签的重组人类CD163(R&D …) [1] = biological target: T1, 加His标签的重组人类CD163(R&D Systems，编号1607-CD-050)蛋白 (human, UniProt Q86VB7 46-1050); assay: ELISA EC50 ratio; upper end of the range, tied to V1 through the lowest EC50 of Table 7
T1 construct: Bought recombinant protein coated on ELISA plates; also called 重组CD163蛋白; huCD163; not shown: His tag
T1 sequence (Q86VB7 46-1050 limits assumed): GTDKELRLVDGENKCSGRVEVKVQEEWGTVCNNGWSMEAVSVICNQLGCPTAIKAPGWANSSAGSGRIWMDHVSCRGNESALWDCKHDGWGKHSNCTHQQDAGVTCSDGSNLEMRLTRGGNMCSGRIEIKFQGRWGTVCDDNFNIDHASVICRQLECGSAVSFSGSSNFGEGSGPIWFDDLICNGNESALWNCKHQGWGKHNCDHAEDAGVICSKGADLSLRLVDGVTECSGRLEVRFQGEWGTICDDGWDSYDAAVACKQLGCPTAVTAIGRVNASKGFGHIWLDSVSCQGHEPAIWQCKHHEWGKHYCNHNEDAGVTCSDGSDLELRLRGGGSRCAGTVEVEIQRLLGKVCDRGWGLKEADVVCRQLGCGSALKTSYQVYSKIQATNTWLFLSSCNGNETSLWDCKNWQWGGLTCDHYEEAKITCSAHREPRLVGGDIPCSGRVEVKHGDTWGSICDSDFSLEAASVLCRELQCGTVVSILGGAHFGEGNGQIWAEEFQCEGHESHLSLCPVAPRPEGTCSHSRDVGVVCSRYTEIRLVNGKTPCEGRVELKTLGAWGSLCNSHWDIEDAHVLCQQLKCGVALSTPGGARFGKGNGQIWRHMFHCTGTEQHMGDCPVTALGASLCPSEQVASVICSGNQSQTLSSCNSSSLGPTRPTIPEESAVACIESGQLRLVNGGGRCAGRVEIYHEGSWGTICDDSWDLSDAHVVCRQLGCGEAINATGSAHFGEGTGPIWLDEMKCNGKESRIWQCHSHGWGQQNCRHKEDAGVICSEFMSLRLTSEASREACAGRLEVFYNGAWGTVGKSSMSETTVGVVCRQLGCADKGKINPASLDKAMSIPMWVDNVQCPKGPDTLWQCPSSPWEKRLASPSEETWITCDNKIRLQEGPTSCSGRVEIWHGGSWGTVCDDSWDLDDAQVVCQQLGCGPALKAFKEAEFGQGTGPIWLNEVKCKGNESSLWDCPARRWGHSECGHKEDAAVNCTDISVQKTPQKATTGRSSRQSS

人类CD163蛋白(生物素化) = biological target: T2, 人类CD163蛋白(生物素化) (human, UniProt Q86VB7 46-1050, limits assumed, biotinylated (sites not given)); assay: BLI, b-huCD163 on SA biosensor, four antibody concentrations
T2 construct: also called b-huCD163; 生物素标记的人类CD163
T2 sequence (Q86VB7 46-1050 limits assumed): as above

加His标签的重组人类CD163(R&D …) [2] = biological target: T1, 加His标签的重组人类CD163(R&D …); assay: ELISA EC50 ratio; lower end of the range, tied to V4 through the highest EC50 of Table 7

Binder | fold stronger binding than AB101 parental antibody (加His标签的重组人类CD163(R&D …) [1]) | fold increase of affinity against AB101 parental Ab (人类CD163蛋白(生物素化)) | fold stronger binding than AB101 parental antibody (加His标签的重组人类CD163(R&D …) [2])
B1 | 45 fold |  | 
B2 |  | ~3760 fold | 27 fold
